Experimental data reported in the supplement of paper PMC5998384.

What was measured:
HeLa Kyoto [1] = experiment: solubility change mitosis vs G1/S (difference of NP-40 vs SDS log2 ratios) (log2 ratio difference); higher = more soluble in mitosis
HeLa Kyoto [2] = experiment: solubility in G1/S (NP-40 vs SDS abundance) (log2 ratio); higher = more soluble; settings: cell cycle stage: G1/S
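For solubility change mitosis vs G1/S (difference of NP-40 vs SDS log2 ratios) in this document: synchronized HeLa Kyoto cells (double thymidine block for G1/S, nocodazole release for mitosis), protein amounts in NP-40 versus SDS lysates quantified by mass spectrometry, three biological replicates.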
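For solubility in G1/S (NP-40 vs SDS abundance) in this document: HeLa Kyoto cells arrested at G1/S by double thymidine block, proteins quantified by TMT10plex mass spectrometry in mild NP-40 versus SDS extracts, three biological replicates.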

Sequence | solubility change mitosis (log2) (HeLa Kyoto [1]) | solubility in G1/S (log2) (HeLa Kyoto [2])
MSSRLGAVPATSGPTTFKQQRSTRIVGAKNSRTQCSIKDNSFQYTIPHDDSLSGSSSASSCEPVSDFPASFRKSTYWMKMRRIKPAATSHVEGSGGVSAKGKRKPRQEEDEDYREFPQKKHKLYGRKQRPKTQPNPKSQARRIRKEPPVYAAGSLEEQWYLEIVDKGSVSCPTCQAVGRKTIEGLKKHMENCKQEMFTCHHCGKQLRSLAGMKYHVMANHNSLPILKAGDEIDEPSERERLRTVLKRLGKLRCMRESCSSSFTSIMGYLYHVRKCGKGAAELEKMTLKCHHCGKPYRSKAGLAYHLRSEHGPISFFPESGQPECLKEMNLESKSGGRVQRRSAKIAVYHLQELASAELAKEWPKRKVLQDLVPDDRKLKYTRPGLPTFSQEVLHKWKTDIKKYHRIQCPNQGCEAVYSSVSGLKAHLGSCTLGNFVAGKYKCLLCQKEFVSESGVKYHINSVHAEDWFVVNPTTTKSFEKLMKIKQRQQEEEKRRQQHRSRRSLRRRQQPGIELPETELSLRVGKDQRRNNEELVVSASCKEPEQEPVPAQFQKVKPPKTNHKRGRK [ZNF512] | 1.4 | -2.03
MSTFRQEDVEDHYEMGEELGSGQFAIVRKCRQKGTGKEYAAKFIKKRRLSSSRRGVSREEIEREVNILREIRHPNIITLHDIFENKTDVVLILELVSGGELFDFLAEKESLTEDEATQFLKQILDGVHYLHSKRIAHFDLKPENIMLLDKNVPNPRIKLIDFGIAHKIEAGNEFKNIFGTPEFVAPEIVNYEPLGLEADMWSIGVITYILLSGASPFLGETKQETLTNISAVNYDFDEEYFSNTSELAKDFIRRLLVKDPKRRMTIAQSLEHSWIKAIRRRNVRGEDSGRKPERRRLKTTRLKEYTIKSHSSLPPNNSYADFERFSKVLEEAAAAEEGLRELQRSRRLCHEDVEALAAIYEEKEAWYREESDSLGQDLRRLRQELLKTEALKRQAQEEAKGALLGTSGLKRRFSRLENRYEALAKQVASEMRFVQDLVRALEQEKLQGVECGLR [DAPK3] | -0.0326 | -0.721
MSTSSLRRQMKNIVHNYSEAEIKVREATSNDPWGPSSSLMSEIADLTYNVVAFSEIMSMIWKRLNDHGKNWRHVYKAMTLMEYLIKTGSERVSQQCKENMYAVQTLKDFQYVDRDGKDQGVNVREKAKQLVALLRDEDRLREERAHALKTKEKLAQTATASSAAVGSGPPPEAEQAWPQSSGEEELQLQLALAMSKEEADQPPSCGPEDDAQLQLALSLSREEHDKEERIRRGDDLRLQMAIEESKRETGGKEESSLMDLADVFTAPAPAPTTDPWGGPAPMAAAVPTAAPTSDPWGGPPVPPAADPWGGPAPTPASGDPWRPAAPAGPSVDPWGGTPAPAAGEGPTPDPWGSSDGGVPVSGPSASDPWTPAPAFSDPWGGSPAKPSTNGTTAAGGFDTEPDEFSDFDRLRTALPTSGSSAGELELLAGEVPARSPGAFDMSGVRGSLAEAVGSPPPAATPTPTPPTRKTPESFLGPNAALVDLDSLVSRPGPTPPGAKASNPFLPGGGPATGPSVTNPFQPAPPATLTLNQLRLSPVPPVPGAPPTYISPLGGGPGLPPMMPPGPPAPNTNPFLL [EPN1] | 0.235 | 0.197
MSVDPMTYEAQFFGFTPQTCMLRIYIAFQDYLFEVMQAVEQVILKKLDGIPDCDISPVQIRKCTEKFLCFMKGHFDNLFSKMEQLFLQLILRIPSNILLPEDKCKETPYSEEDFQHLQKEIEQLQEKYKTELCTKQALLAELEEQKIVQAKLKQTLTFFDELHNVGRDHGTSDFRESLVSLVQNSRKLQNIRDNVEKESKRLKIS [MIS12] | 0.259 | -0.177
MSVTEEDLCHHMKVVVRVRPENTKEKAAGFHKVVHVVDKHILVFDPKQEEVSFFHGKKTTNQNVIKKQNKDLKFVFDAVFDETSTQSEVFEHTTKPILRSFLNGYNCTVLAYGATGAGKTHTMLGSADEPGVMYLTMLHLYKCMDEIKEEKICSTAVSYLEVYNEQIRDLLVNSGPLAVREDTQKGVVVHGLTLHQPKSSEEILHLLDNGNKNRTQHPTDMNATSSRSHAVFQIYLRQQDKTASINQNVRIAKMSLIDLAGSERASTSGAKGTRFVEGTNINRSLLALGNVINALADSKRKNQHIPYRNSKLTRLLKDSLGGNCQTIMIAAVSPSSVFYDDTYNTLKYANRAKDIKSSLKSNVLNVNNHITQYVKICNEQKAEILLLKEKLKAYEEQKAFTNENDQAKLMISNPQEKEIERFQEILNCLFQNREEIRQEYLKLEMLLKENELKSFYQQQCHKQIEMMCSEDKVEKATGKRDHRLAMLKTRRSYLEKRREEELKQFDENTNWLHRVEKEMGLLSQNGHIPKELKKDLHCHHLHLQNKDLKAQIRHMMDLACLQEQQHRQTEAVLNALLPTLRKQYCTLKEAGLSNAAFESDFKEIEHLVERKKVVVWADQTAEQPKQNDLPGISVLMTFPQLGPVQPIPCCSSSGGTNLVKIPTEKRTRRKLMPSPLKGQHTLKSPPSQSVQLNDSLSKELQPIVYTPEDCRKAFQNPSTVTLMKPSSFTTSFQAISSNINSDNCLKMLCEVAIPHNRRKECGQEDLDSTFTICEDIKSSKCKLPEQESLPNDNKDILQRLDPSSFSTKHSMPVPSMVPSYMAMTTAAKRKRKLTSSTSNSSLTADVNSGFAKRVRQDNSSEKHLQENKPTMEHKRNICKINPSMVRKFGRNISKGNLR [KIF18A] | -0.237 | -0.624
MSYCRQEGKDRIIFVTKEDHETPSSAELVADDPNDPYEEHGLILPNGNINWNCPCLGGMASGPCGEQFKSAFSCFHYSTEEIKGSDCVDQFRAMQECMQKYPDLYPQEDEDEEEEREKKPAEQAEETAPIEATATKEEEGSS [CHCHD4] | -0.667 | -0.518
MSYMLPHLHNGWQVDQAILSEEDRVVVIRFGHDWDPTCMKMDEVLYSIAEKVKNFAVIYLVDITEVPDFNKMYELYDPCTVMFFFRNKHIMIDLGTGNNNKINWAMEDKQEMVDIIETVYRGARKGRGLVVSPKDYSTKYRY [TXNL4A] | 0.224 | -0.625
MTFQFNFTIEDHLENELTPIRDGALTLDSSKELSVSESQKGEERDRKCSAEQFDLPQDHLWEHKSMENAAPSQDTDSPLSAASSSRNLEPHGKQPSLRAAKEHAMPKDLKKMLENKVIETLPGFQHVKLSVVKTILLKENFPGENIVSKSFSSHSDLITGVYEGGLKIWECTFDLLAYFTKAKVKFAGKKVLDLGCGSGLLGITAFKGGSKEIHFQDYNSMVIDEVTLPNVVANSTLEDEENDVNEPDVKRCRKPKVTQLYKCRFFSGEWSEFCKLVLSSEKLFVKYDLILTSETIYNPDYYSNLHQTFLRLLSKNGRVLLASKAHYFGVGGGVHLFQKFVEERDVFKTRILKIIDEGLKRFIIEITFKFPG [METTL18] | 0.0132 | -0.31
MTQQPQDDFDRSVEDAQAWMKAVQDQLQVNDNTQGPRAALEARLWETEKICQLEPEGRVRVDLVLRMAEALLACCPGDQKPGILARLKDIKAQWEETVTYMTHCHSRIEWVWLHWSEYLLARDEFYRWFQKMMVTLEPHIELQLGLKEKQWQLSHAQVLLHNVDNQAVLLDRLLEEAASLFNRIGDPSVDEDAQKRMKAEYDAVKAKAQKRVDLLEQVAREHEEYQAGVDEFQLWLKAVVEKVNGCLGRNCKLPITQRLSTLQDIAKDFPRGEESLETLEEQSAGVIRNTSPLGAEKITGELEEMRKVLEKLRALWEEEEERLRGLLRSRGAWEQQIKQLEAELSEFRMVLQRLAQEGLQPAAKAGTEDELVAHWRRYSATRAALASEEPRVDRLQAQLKELIVFPHNLKPLSDSVIATIQEYQSLKVKSARLRNAAAVELWQHFQRPLQDLQLWKALAQRLLEVTASLPDLPSLHTFLPQIEAALMESSRLKELLTMLQLKKDLLIGIFGQERATALLEQVAGSMRDRDLLHNSLLQRKSKLQSLLAQHKDFGAAFEPLQRKLLDLQVRVQAEKGLQRDLPGKQAQLSRLQGLQEEGLDLGAQMEAARPLVQENPNHQHKMDQLSSDFQALQRSLEDLVDRCRQSVQEHCTFSHQLLELRQWIVVTTQKLEAHRGEAGPGDAESQEAEFERLVAEFPEKEAQLSLVEAQGWLVMEKSSPEGAAVVQEELRELAESWRALRLLEESLLSLIRNWHLQRMEVDSGKKMVFTNNIPKSGFLINPMDPIPRHRRRANLLQEEEGSHEDFSQLLRNFGQWLQVENSKLVRIIAMRTSTAEDLRTRKSKLQELEARVPEGQHLFENLLRLGPARGTSDELEDLRYQWMLYKSKLKDSGHLLTQSSPGEPTGFQKTRRWRGLGSLFRRACCVALPLQLLLLLFLLLLFLLPIREEDRSCTLANNFARSFTLMLRYNGPPPT [SYNE3] | 0.336 | -0.89
MTYAYLFKYIIIGDTGVGKSCLLLQFTDKRFQPVHDLTIGVEFGARMVNIDGKQIKLQIWDTAGQESFRSITRSYYRGAAGALLVYDITRRETFNHLTSWLEDARQHSSSNMVIMLIGNKSDLESRRDVKREEGEAFAREHGLIFMETSAKTACNVEEAFINTAKEIYRKIQQGLFDVHNEANGIKIGPQQSISTSVGPSASQRNSRDIGSNSGCC [RAB2B] | -0.115 | -0.221
MVAMAEAEAGVAVEVRGLPPAVPDELLTLYFENRRRSGGGPVLSWQRLGCGGVLTFREPADAERVLAQADHELHGAQLSLRPAPPRAPARLLLQGLPPGTTPQRLEQHVQALLRASGLPVQPCCALASPRPDRALVQLPKPLSEADVRVLEEQAQNLGLEGTLVSLARVPQARAVRVVGDGASVDLLLLELYLENERRSGGGPLEDLQRLPGPLGTVASFQQWQVAERVLQQEHRLQGSELSLVPHYDILEPEELAENTSGGDHPSTQGPRATKHALLRTGGLVTALQGAGTVTMGSGEEPGQSGASLRTGPMVQGRGIMTTGSGQEPGQSGTSLRTGPMGSLGQAEQVSSMPMGSLEHEGLVSLRPVGLQEQEGPMSLGPVGSAGPVETSKGLLGQEGLVEIAMDSPEQEGLVGPMEITMGSLEKAGPVSPGCVKLAGQEGLVEMVLLMEPGAMRFLQLYHEDLLAGLGDVALLPLEGPDMTGFRLCGAQASCQAAEEFLRSLLGSISCHVLCLEHPGSARFLLGPEGQHLLQGLEAQFQCVFGTERLATATLDTGLEEVDPTEALPVLPGNAHTLWTPDSTGGDQEDVSLEEVRELLATLEGLDLDGEDWLPRELEEEGPQEQPEEEVTPGHEEEEPVAPSTVAPRWLEEEAALQLALHRSLEPQGQVAEQEEAAALRQALTLSLLEQPPLEAEEPPDGGTDGKAQLVVHSAFEQDVEELDRALRAALEVHVQEETVGPWRRTLPAELRARLERCHGVSVALRGDCTILRGFGAHPARAARHLVALLAGPWDQSLAFPLAASGPTLAGQTLKGPWNNLERLAENTGEFQEVVRAFYDTLDAARSSIRVVRVERVSHPLLQQQYELYRERLLQRCERRPVEQVLYHGTTAPAVPDICAHGFNRSFCGRNATVYGKGVYFARRASLSVQDRYSPPNADGHKAVFVARVLTGDYGQGRRGLRAPPLRGPGHVLLRYDSAVDCICQPSIFVIFHDTQALPTHLITCEHVPRASPDDPSGLPGRSPDT [PARP10] | 0.0134 | 0.14
MVARRRKCAARDPEDRIPSPLGYAAIPIKFSEKQQASHYLYVRAHGVRQGTKSTWPQKRTLFVLNVPPYCTEESLSRLLSTCGLVQSVELQEKPDLAESPKESRSKFFHPKPVPGFQVAYVVFQKPSGVSAALALKGPLLVSTESHPVKSGIHKWISDYADSVPDPEALRVEVDTFMEAYDQKIAEEEAKAKEEEGVPDEEGWVKVTRRGRRPVLPRTEAASLRVLERERRKRSRKELLNFYAWQHRESKMEHLAQLRKKFEEDKQRIELLRAQRKFRPY [RRP7A] | 1.02 | -1.58
